Like-named read-outs stand apart in the source and are kept apart here.
Columns and labels:
flg = assay: Saturation (equilibrium) binding of [125I]FGF to flg-overexpressing cells, Scatchard analysis; parameters: species or system human; settings: for binding of [125I]aFGF and [125I]bFGF at saturation to flg in presence of unlabelled ligand: 100 fold molar excess of unlabelled ligand
Description: (§1) Bovine derived aFGF, purified as previously described (Burgess, et al., J. Biol. Chem., 260: 11389-11392 (1985)), human recombinant bFGF (a kind gift of Dr. Moscatelli) and human recombinant kFGF (a kind gift of Dr. Claudio Basilico) were radioiodinated using the protocol for Enzymobeads (BioRad). The specific activity of the radiolabelled ligand was determined by radioisotope dilution using the respective unlabelled competitsr. The concentrations of the unlabelled ligands were determined by amino acid analysis (Jaye, et al., 1987 supra). The specific activity of the different preparations of [^125 I]aFGF varied between 130,000-760,000 cpm/ng and the specific activity for [^125 I]bFGF between 50,000-500,000 cpm/ng. The specific activity of [^125 I]kFGF varied from 50,000-200,000 cpm/ng. The binding assay was performed as follows: Fibronectin-coated 24 well dishes containing 1×10^5 cells/well were placed on ice, and the wells were rinsed twice with cold binding buffer (DMEM, 1 mg/ml BSA, 5 U/ml heparin, 50 mM Hepes, pH 7.4). Dishes were incubated on ice with 1 ml of ice cold binding buffer for 20 minutes, followed by 2 hours at 4° C. with serial dilutions of the [^125 I]FGF in cold binding buffer without heparin. Nonspecific binding was obtained using the same serial dilutions but in the presence of 100 fold molar excess of non-radioactive aFGF. After incubation, the cells were placed on-ice and rinsed twice with ice cold binding buffer minus heparin and then solubilized in 0.3N NaOH 37° C., 15 minutes. When [^125 I]bFGF was used the cells were placed on ice after incubation, washed three times with PBS, twice with 1 ml 2M NaCl in 20 mM Hepes, pH 7.5 and twice with 1 ml 2M NaCl in 20 mM sodium acetate, pH 4.0. The radioactivity released by the acid 2M NaCl wash represents specific binding to high affinity sites (Moscatelli, J. Cell. Physiol., 131: 123-130 (1987)). Acidic and basic FGF were radioiodinated and purified on heparin-Sepharose as described above. The dissociation constants of bek and fiq for aFGF and bFGF were established by saturation binding analysis of the overexpressing cell lines with the iodinated ligands. Binding of both aFGF and bFGF to bek and flg was specific and saturable (FIG. 6A, inserts). […] Also kFGF binds to bek with similar affinity as does bFGF but binds to flg with 4-foldless avidity than does bFGF. The data from additional experiments yield apparent Kds of aFGF for flg in the range of 20-80 pM and for bek in the range of 40-100 pM. […] The range of values probably arises from determinations of the specific activity and biological integrity of different preparations of the iodinated ligands. […] These conclusions were supported by competition (isotope dilution) experiments in which increasing amounts of nonradioactive aFGF or bFGF competed for binding with [^125 I]aFGF and [^125 I]bFGF to flg- and bek-overexpressing cells.

bek = assay: Saturation (equilibrium) binding of [125I]FGF to bek-overexpressing cells, Scatchard analysis; parameters: species or system human; settings: for binding of [125I]aFGF and [125I]bFGF at saturation to bek in presence of unlabelled ligand: 100 fold molar excess of unlabelled ligand
Description: as §1

[1] = data from additional experiments, read-out: apparent Kd for flg, range
[2] = typical experiment, Scatchard analysis, flg-overexpressing NIH 3T3 cells (flg26), 4° C., read-out: affinity (dissociation constant) for flg
[3] = within any single experiment, compared to aFGF
[4] = data from additional experiments, read-out: apparent Kd for bek, range
[5] = typical experiment, Scatchard analysis, bek-overexpressing NIH 3T3 cells (bek8; bek13 for kFGF), 4° C., read-out: affinity (dissociation constant) for bek

Row | Molecule | binding of [125I]aFGF and [125I]bFGF at saturation to flg in presence of unlabelled ligand (flg) | Kd (flg; [1]) [nM] | Kd (flg; [2]) [nM] | fold lower affinity for flg compared to aFGF (flg; [3]) | binding of [125I]aFGF and [125I]bFGF at saturation to bek in presence of unlabelled ligand (bek) | Kd (bek; [4]) [nM] | Kd (bek; [5]) [nM] | fold lower affinity for bek compared to aFGF (bek; [3]) | fold less avidity for flg than bFGF (flg; compared to bFGF) [fold]
1 | bFGF: human recombinant basic fibroblast growth factor, radioiodinated for binding | completely eliminated | 0.05 to 0.15 | 0.047 | approximately 2 fold | completely eliminated | 0.08 to 0.15 | 0.082 | approximately 2 fold | –
2 | aFGF: Bovine derived acidic fibroblast growth factor, purified, radioiodinated for binding (protein, UniProt P03968 16-155, looked up, radioiodinated) Fibroblast growth factor 1: FNLPLGNYKKPKLLYCSNGGYFLRILPDGTVDGTKDRSDQHIQLQLCAESIGEVYIKSTETGQFLAMDTDGLLYGSQTPNEECLFLERLEENHYNTYISKKHAEKHWFVGLKKNGRSKLGPRTHFGQKAILFLPLPVSSD | completely eliminated | 0.02 to 0.08 | 0.024 | – | completely eliminated | 0.04 to 0.1 | 0.047 | – | –
3 | kFGF: human recombinant kFGF, member of the FGF family, radioiodinated for binding (protein, UniProt P08620 31-206, looked up, radioiodinated) Fibroblast growth factor 4: APTAPNGTLEAELERRWESLVALSLARLPVAAQPKEAAVQSGAGDYLLGIKRLRRLYCNVGIGFHLQALPDGRIGGAHADTRDSLLELSPVERGVVSIFGVASRFFVAMSSKGKLYGSPFFTDECTFKEILLPNNYNAYESYKYPGMFIALSKNGKTKKGNRVSPTMKVTHFLPRL | – | – | 0.32 | – | – | – | 0.08 | – | 4

Reference: US5863888A, “Human Bek Fibroblast growth factor receptor” (Rhone-Poulenc Rorer Pharmaceuticals Inc., priority 1995, dated 1999)
